Reference: the supplement of paper PMC10065799, “High-throughput profiling of sequence recognition by tyrosine kinases and SH2 domains using bacterial peptide display” (eLife, 2023)

These sequences were tested against FGFR1 (UniProt P11362) (assay: phosphorylation enrichment, bacterial display (enrichment ratio); higher = better substrate or ligand; peptides without Tyr show the background).
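Note: 11-residue human phosphosite peptides and single-mutation variants displayed on the E. coli surface, counted by deep sequencing, each peptide's frequency after selection divided by its frequency in the unselected input library; frequency after pTyr selection over input frequency; kinase dosed for 20-30% of maximal phosphorylation in three min.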

FGFR1, sequence (P11362 whole entry, looked up): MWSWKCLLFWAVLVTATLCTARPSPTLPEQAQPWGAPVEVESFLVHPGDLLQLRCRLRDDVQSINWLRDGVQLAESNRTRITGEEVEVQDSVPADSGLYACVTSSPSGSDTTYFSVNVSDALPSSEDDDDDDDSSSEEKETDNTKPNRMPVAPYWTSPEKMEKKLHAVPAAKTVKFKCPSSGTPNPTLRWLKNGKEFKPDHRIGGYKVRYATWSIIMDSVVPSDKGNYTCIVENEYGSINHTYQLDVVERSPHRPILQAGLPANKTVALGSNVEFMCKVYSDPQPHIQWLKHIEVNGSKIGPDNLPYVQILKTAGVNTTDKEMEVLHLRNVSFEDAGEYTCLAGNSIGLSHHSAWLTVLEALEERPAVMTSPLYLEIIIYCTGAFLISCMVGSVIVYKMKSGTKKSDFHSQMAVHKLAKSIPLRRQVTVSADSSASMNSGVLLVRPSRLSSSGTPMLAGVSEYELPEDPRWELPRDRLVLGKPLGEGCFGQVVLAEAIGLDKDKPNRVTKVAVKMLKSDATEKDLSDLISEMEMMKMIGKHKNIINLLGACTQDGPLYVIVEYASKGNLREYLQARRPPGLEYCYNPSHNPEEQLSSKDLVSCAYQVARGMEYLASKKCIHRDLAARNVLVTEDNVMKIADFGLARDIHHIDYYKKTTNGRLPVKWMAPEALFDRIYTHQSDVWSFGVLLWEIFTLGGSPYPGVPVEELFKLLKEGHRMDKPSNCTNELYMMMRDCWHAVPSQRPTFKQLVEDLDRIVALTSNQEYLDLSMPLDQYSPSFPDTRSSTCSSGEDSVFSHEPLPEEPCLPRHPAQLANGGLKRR

Sequence	phosphorylation enrichment
CERLPYDASKW [FLT1_Y815]	0.523
SAVTGYRVDVI [FN1_Y937]	0.398
LFPANYVAPMT [GRAP2_Y324]	0.535
IHETTHNSIMK [ACTA1_Y281_Y281H]	0.425
ENAGYYFQVSA	0.94
CGLPRYRWLTH [TSPAN12_Y143_Y138C]	0.435
PSPMPYAFCQM [FOXL2_Y215_S217F]	2.61
KMMGRYEMYAR [UPB1_Y362_T359M]	0.5
PIPAAYNKYDQ [CDC73_Y290_R292K]	0.608
RLDGEYFTLQI [TP53_Y327_P322R]	5.82
SSPRRYTIAAL [TTR_Y125_G121S]	0.383
RRVLVYGDRGA [QDPR_Y16_G18D]	0.413
HICTAYKLVLA [DHCR24_Y190_E191K]	2.66
TTPYNYSYIFK [RAB14_Y8_A4T]	1.24
KNEKVYTRHGV [FLOT1_Y56_S52N]	0.352
KDPPDYKFQPR [SOX9_Y172_H169P_YF]	0.427
TSNQEYLYLSM [FGFR1_Y766_D768Y]	12.5
HTLQLYRCREE [ALPK3_Y342]	0.898
ELTAKYLNFFQ [P3H4_Y181_YF]	0.438
QADIIYVNTQL [MERTK_Y872_V870I]	0.712
YSTDYYRVGGH [NTRK2_Y707]	14.2
ARAFIYAIIPA [ACKtide_2014]	1.07
GRVLGYGAFRK [FLT4_Y853_G857R]	0.477
GSIQQYTFKQE [PRG4_Y1271_I1272T_YF]	0.369
ISSLPYMKMIF [SLC4A11_Y853_M848I]	0.696
GLSDPYVKIHL [SYT2_Y309]	0.546
IALNSYHSRNC [IFNGR1_Y397]	0.464
VRFMAYTDETC [F8_Y450_F455C]	0.544
PSRKDYETYQS [CTNND2_Y1154_P1159S]	0.539

These sequences were tested on c-Abl (mouse) in the same assay as above.

Sequence	phosphorylation enrichment
CERLPYDASKW [FLT1_Y815]	0.824
SAVTGYRVDVI [FN1_Y937]	0.432
LFPANYVAPMT [GRAP2_Y324]	0.713
IHETTHNSIMK [ACTA1_Y281_Y281H]	0.401
ENAGYYFQVSA	0.603
CGLPRYRWLTH [TSPAN12_Y143_Y138C]	0.453
PSPMPYAFCQM [FOXL2_Y215_S217F]	1.44
KMMGRYEMYAR [UPB1_Y362_T359M]	0.367
PIPAAYNKYDQ [CDC73_Y290_R292K]	0.944
RLDGEYFTLQI [TP53_Y327_P322R]	1.2
SSPRRYTIAAL [TTR_Y125_G121S]	0.4
RRVLVYGDRGA [QDPR_Y16_G18D]	0.445
HICTAYKLVLA [DHCR24_Y190_E191K]	0.969
TTPYNYSYIFK [RAB14_Y8_A4T]	0.706
KNEKVYTRHGV [FLOT1_Y56_S52N]	0.435
KDPPDYKFQPR [SOX9_Y172_H169P_YF]	0.626
TSNQEYLYLSM [FGFR1_Y766_D768Y]	0.975
HTLQLYRCREE [ALPK3_Y342]	0.329
ELTAKYLNFFQ [P3H4_Y181_YF]	0.765
QADIIYVNTQL [MERTK_Y872_V870I]	1.02
YSTDYYRVGGH [NTRK2_Y707]	1.03
ARAFIYAIIPA [ACKtide_2014]	2.27
GRVLGYGAFRK [FLT4_Y853_G857R]	0.644
GSIQQYTFKQE [PRG4_Y1271_I1272T_YF]	0.728
ISSLPYMKMIF [SLC4A11_Y853_M848I]	0.872
GLSDPYVKIHL [SYT2_Y309]	0.556
IALNSYHSRNC [IFNGR1_Y397]	0.599
VRFMAYTDETC [F8_Y450_F455C]	0.973
PSRKDYETYQS [CTNND2_Y1154_P1159S]	0.729

Each sequence was assayed against Fyn (UniProt P06241) in the same assay as above.
Fyn, sequence (P06241 whole entry, looked up): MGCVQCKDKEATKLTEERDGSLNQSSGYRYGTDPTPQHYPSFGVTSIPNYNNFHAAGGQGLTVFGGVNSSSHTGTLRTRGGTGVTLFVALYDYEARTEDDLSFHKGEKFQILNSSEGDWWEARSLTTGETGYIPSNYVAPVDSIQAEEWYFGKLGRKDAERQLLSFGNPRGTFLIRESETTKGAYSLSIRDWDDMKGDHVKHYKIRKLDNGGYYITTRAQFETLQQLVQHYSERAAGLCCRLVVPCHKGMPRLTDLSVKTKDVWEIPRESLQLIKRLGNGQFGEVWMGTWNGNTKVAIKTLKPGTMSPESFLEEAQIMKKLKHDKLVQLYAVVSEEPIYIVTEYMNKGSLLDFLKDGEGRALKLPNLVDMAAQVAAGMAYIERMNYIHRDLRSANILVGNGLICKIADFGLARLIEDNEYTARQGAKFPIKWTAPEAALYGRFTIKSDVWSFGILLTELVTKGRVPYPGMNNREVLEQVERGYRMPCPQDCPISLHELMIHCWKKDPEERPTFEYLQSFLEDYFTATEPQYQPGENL

Sequence	phosphorylation enrichment
CERLPYDASKW [FLT1_Y815]	0.45
SAVTGYRVDVI [FN1_Y937]	0.425
LFPANYVAPMT [GRAP2_Y324]	0.446
IHETTHNSIMK [ACTA1_Y281_Y281H]	0.43
ENAGYYFQVSA	0.527
CGLPRYRWLTH [TSPAN12_Y143_Y138C]	0.707
PSPMPYAFCQM [FOXL2_Y215_S217F]	0.706
KMMGRYEMYAR [UPB1_Y362_T359M]	0.333
PIPAAYNKYDQ [CDC73_Y290_R292K]	0.46
RLDGEYFTLQI [TP53_Y327_P322R]	1.34
SSPRRYTIAAL [TTR_Y125_G121S]	0.412
RRVLVYGDRGA [QDPR_Y16_G18D]	0.542
HICTAYKLVLA [DHCR24_Y190_E191K]	1.3
TTPYNYSYIFK [RAB14_Y8_A4T]	0.593
KNEKVYTRHGV [FLOT1_Y56_S52N]	0.355
KDPPDYKFQPR [SOX9_Y172_H169P_YF]	0.439
TSNQEYLYLSM [FGFR1_Y766_D768Y]	2.08
HTLQLYRCREE [ALPK3_Y342]	0.573
ELTAKYLNFFQ [P3H4_Y181_YF]	0.458
QADIIYVNTQL [MERTK_Y872_V870I]	1.09
YSTDYYRVGGH [NTRK2_Y707]	1.68
ARAFIYAIIPA [ACKtide_2014]	2.65
GRVLGYGAFRK [FLT4_Y853_G857R]	0.517
GSIQQYTFKQE [PRG4_Y1271_I1272T_YF]	0.345
ISSLPYMKMIF [SLC4A11_Y853_M848I]	0.457
GLSDPYVKIHL [SYT2_Y309]	0.458
IALNSYHSRNC [IFNGR1_Y397]	0.417
VRFMAYTDETC [F8_Y450_F455C]	0.403
PSRKDYETYQS [CTNND2_Y1154_P1159S]	0.543

Each sequence was assayed on AncSZ in the same assay as above.

Sequence	phosphorylation enrichment
CERLPYDASKW [FLT1_Y815]	0.951
SAVTGYRVDVI [FN1_Y937]	0.546
LFPANYVAPMT [GRAP2_Y324]	0.827
IHETTHNSIMK [ACTA1_Y281_Y281H]	0.452
ENAGYYFQVSA	1.17
CGLPRYRWLTH [TSPAN12_Y143_Y138C]	0.848
PSPMPYAFCQM [FOXL2_Y215_S217F]	1.87
KMMGRYEMYAR [UPB1_Y362_T359M]	0.711
PIPAAYNKYDQ [CDC73_Y290_R292K]	0.707
RLDGEYFTLQI [TP53_Y327_P322R]	1.89
SSPRRYTIAAL [TTR_Y125_G121S]	0.437
RRVLVYGDRGA [QDPR_Y16_G18D]	0.585
HICTAYKLVLA [DHCR24_Y190_E191K]	1.88
TTPYNYSYIFK [RAB14_Y8_A4T]	0.895
KNEKVYTRHGV [FLOT1_Y56_S52N]	0.514
KDPPDYKFQPR [SOX9_Y172_H169P_YF]	0.811
TSNQEYLYLSM [FGFR1_Y766_D768Y]	2.64
HTLQLYRCREE [ALPK3_Y342]	0.953
ELTAKYLNFFQ [P3H4_Y181_YF]	0.871
QADIIYVNTQL [MERTK_Y872_V870I]	1.28
YSTDYYRVGGH [NTRK2_Y707]	2.31
ARAFIYAIIPA [ACKtide_2014]	1.4
GRVLGYGAFRK [FLT4_Y853_G857R]	0.634
GSIQQYTFKQE [PRG4_Y1271_I1272T_YF]	0.703
ISSLPYMKMIF [SLC4A11_Y853_M848I]	1.05
GLSDPYVKIHL [SYT2_Y309]	0.693
IALNSYHSRNC [IFNGR1_Y397]	0.584
VRFMAYTDETC [F8_Y450_F455C]	1.11
PSRKDYETYQS [CTNND2_Y1154_P1159S]	0.875
